# Assay results as given in patent US20050158302.
# B1: Cdk8 (53 kD cytosolic protein kinase of Molt-4 extracts) (protein)
# chain: MDYDFKVKLSSERERVEDLFEYEGCKVGRGTYGHVYKAKRKDGKDDKDYALKQIEGTGISMSACREIALLRELKHPNVISLQKVFLSHADRKVWLLFDYAEHDLWHIIKFHRASKANKKPVQLPRGMVKSLLYQILDGIHYLHANWVLHRDLKPANILVMGEGPERGRVKIADMGFARLFNSPLKPLADLDPVVVTFWYRAPELLLGARHYTKAIDIWAIGCIFAELLTSEPIFHCRQEDIKTSNPYHHDQLDRIFNVMGFPADKDWEDIKKMPEHSTLMKDFRRNTYTNCSLIKYMEKHKVKPDSKAFHLLQKLLTMDPIKRITSEQAMQDPYFLEDPLPTSDVFAGCQIPYPKREFLTEEEPDDKGDKKNQQQQQGNNHTNGTGHPGNQDSSHTQGPPLKKVRVVPPTTTSGGLIMTSDYQRSNPHAAYPNPGPSTSQPQSSMGYSATSQQPPQYSHQTHRY
# Target: GST-NFκBp65 C418 (GST-trans-activation domain only of NFκBp65) [GST: P08515]
# Sequence (P08515 whole entry, looked up, the tested form may be a part): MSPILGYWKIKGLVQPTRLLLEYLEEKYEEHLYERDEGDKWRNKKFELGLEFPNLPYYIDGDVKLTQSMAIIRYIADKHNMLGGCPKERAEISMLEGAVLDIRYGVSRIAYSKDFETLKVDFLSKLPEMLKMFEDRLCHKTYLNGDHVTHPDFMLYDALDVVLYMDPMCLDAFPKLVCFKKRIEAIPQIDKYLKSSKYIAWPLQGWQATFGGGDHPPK
protein,measurement,value
B1,CTD phosphorylation in in vitro kinase reaction (GST-CTD substrate),kinase activity was only mildly detected in GST-NFκBp65 C418/cytosolic protein complexes
